{"source": "patent US20260167710A1", "about": "(GlaxoSmithKline, published 2026)", "key": {"human IL-33 [1]": {"biological_target": "T1, human IL-33 (human, Biotinylated in Example 2; the site is not stated.)", "T1 chain": "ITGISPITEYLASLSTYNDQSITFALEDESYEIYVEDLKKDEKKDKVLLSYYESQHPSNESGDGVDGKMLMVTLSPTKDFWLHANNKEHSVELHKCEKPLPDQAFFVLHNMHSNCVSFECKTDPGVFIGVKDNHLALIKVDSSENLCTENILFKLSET", "assay": "cell-based or functional assay"}, "[2]": {"biological_target": "T2, cynomolgus recombinant neonatal receptor (FcRn) (cynomolgus monkey, UniProt Q8SPV9 24-297; Q8SPW0 21-119)", "T2 construct": "extracellular domain; beta-2-microglobulin is not mentioned; also called cyno FcRn; cynomolgus monkey FcRn", "T2 sequence (Q8SPV9 24-297 limits assumed, chain 1 of 2)": "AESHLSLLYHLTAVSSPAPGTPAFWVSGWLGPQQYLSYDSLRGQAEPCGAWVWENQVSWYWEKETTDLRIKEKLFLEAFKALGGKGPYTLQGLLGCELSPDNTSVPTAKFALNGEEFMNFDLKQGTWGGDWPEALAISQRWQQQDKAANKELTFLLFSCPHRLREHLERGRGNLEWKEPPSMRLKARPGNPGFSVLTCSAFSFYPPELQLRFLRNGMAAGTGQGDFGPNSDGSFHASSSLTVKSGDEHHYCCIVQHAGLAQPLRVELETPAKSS", "T2 sequence (Q8SPW0 21-119 limits assumed, chain 2 of 2)": "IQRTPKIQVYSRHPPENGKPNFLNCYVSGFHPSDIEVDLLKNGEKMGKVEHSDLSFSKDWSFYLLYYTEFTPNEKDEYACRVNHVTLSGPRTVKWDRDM", "assay": "SPR (ProteOn XPR36), antibody captured by protein L, FcRn as analyte, equilibrium fit, pH 7.4, 25 C"}, "[3]": {"biological_target": "T3, human recombinant neonatal receptor (FcRn) (human, UniProt P55899 24-297; P61769 21-119)", "T3 construct": "also called human FcRn; human recombinant soluble FcRn", "T3 sequence (P55899 24-297 limits assumed, chain 1 of 2)": "as the sequence (Q8SPV9 24-297 limits assumed, chain 1 of 2) above, with D39N, Q44E, S99G, G189S, N190S, M217L, T269S counted along it", "T3 sequence (P61769 21-119 limits assumed, chain 2 of 2)": "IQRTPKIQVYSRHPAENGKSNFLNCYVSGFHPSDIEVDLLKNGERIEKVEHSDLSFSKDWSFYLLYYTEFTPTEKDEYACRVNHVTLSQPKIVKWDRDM", "assay": "SPR (ProteOn XPR36), antibody captured by protein L, FcRn as analyte, equilibrium fit, pH 7.4, 25 C"}, "human IL-33 [4]": {"biological_target": "T1, human IL-33", "assay": "cell-based or functional assay"}, "IL-33 109-270": {"biological_target": "T4, IL-33 109-270 (UniProt O95760 109-270)", "T4 sequence (looked up)": "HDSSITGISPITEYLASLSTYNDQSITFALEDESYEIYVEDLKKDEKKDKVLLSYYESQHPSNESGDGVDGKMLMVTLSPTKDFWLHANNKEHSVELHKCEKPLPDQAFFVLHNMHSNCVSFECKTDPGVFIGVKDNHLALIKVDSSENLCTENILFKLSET", "assay": "cell-based or functional assay"}, "IL-33 95-270": {"biological_target": "T5, IL-33 95-270 (UniProt O95760 95-270)", "T5 sequence (looked up)": "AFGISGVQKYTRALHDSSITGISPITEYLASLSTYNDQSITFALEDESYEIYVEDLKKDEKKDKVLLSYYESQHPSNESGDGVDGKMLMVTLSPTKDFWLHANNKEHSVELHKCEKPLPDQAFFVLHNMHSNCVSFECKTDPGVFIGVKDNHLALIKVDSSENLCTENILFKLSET", "assay": "cell-based or functional assay"}, "[5]": {"biological_target": "T6, Mature IL-33 (IL-33 113-270) (UniProt O95760 113-270)", "T6 sequence (looked up)": "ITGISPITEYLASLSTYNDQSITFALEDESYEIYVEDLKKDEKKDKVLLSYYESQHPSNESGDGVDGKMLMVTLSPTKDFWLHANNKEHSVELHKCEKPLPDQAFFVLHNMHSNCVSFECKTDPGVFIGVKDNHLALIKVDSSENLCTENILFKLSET", "assay": "cell-based or functional assay"}, "spIL-33": {"biological_target": "spIL-33", "assay": "cell-based or functional assay"}, "IL-33 99-270": {"biological_target": "T7, IL-33 99-270 (UniProt O95760 99-270)", "T7 sequence (looked up)": "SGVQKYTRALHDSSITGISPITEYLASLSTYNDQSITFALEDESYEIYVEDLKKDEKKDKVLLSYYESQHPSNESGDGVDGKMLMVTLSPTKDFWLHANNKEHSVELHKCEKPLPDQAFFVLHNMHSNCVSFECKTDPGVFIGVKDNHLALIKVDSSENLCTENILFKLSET", "assay": "cell-based or functional assay"}}}
{"binder": "22A06-458 (antibody, human IgG1, kappa) heavy: QVQLVQSGAEVKKPGASVKVSCKASGYTFISYGMHWVRQAPGQGLEWMGEINPHGGSTSYAQKFKGRVTMTRDTSTSTVYMELSSLRSEDTAVYYCARPSAAYSHYLGIDLWGRGTLVTVSSASTKGPSVFPLAPSSKSTSGGTAALGCLVKDYFPEPVTVSWNSGALTSGVHTFPAVLQSSGLYSLSSVVTVPSSSLGTQTYICNVNHKPSNTKVDKKVEPKSCDKTHTCPPCPAPELLGGPSVFLFPPKPKDTLYITREPEVTCVVVDVSHEDPEVKFNWYVDGVEVHNAKTKPREEQYNSTYRVVSVLTVLHQDWLNGKEYKCKVSNKALPAPIEKTISKAKGQPREPQVYTLPPSRDELTKNQVSLTCLVKGFYPSDIAVEWESNGQPENNYKTTPPVLDSDGSFFLYSKLTVDKSRWQQGNVFSCSVMHEALHNHYTQKSLSLSPGK light: DIQMTQSPSSVSASVGDRVTITCRASQGISSWLAWYQQKPGKAPKLLIYAASRLQSGVPSRFSGSGSGTDFTLTISSLQPEDFATYYCQQANVFPLTFGGGTKVEIKRTVAAPSVFIFPPSDEQLKSGTASVVCLLNNFYPREAKVQWKVDNALQSGNSQESVTEQDSKDSTYSLSSTLTLSKADYEKHKVYACEVTHQGLSSPVTKSFNRGEC", "values": [{"measurement": "IC50, inhibition of IL-33 (15 pM) induced superoxide generation from eosinophils, pre-complexed, N = 1", "setting": "human IL-33 [1]", "value": 21.9, "unit": "pM"}, {"measurement": "IC50, inhibition of IL-33 (15 pM) induced superoxide generation from eosinophils, pre-complexed, N = 2", "setting": "human IL-33 [1]", "value": 23.5, "unit": "pM"}, {"measurement": "IC50, inhibition of IL-33 (15 pM) induced superoxide generation from eosinophils, pre-complexed, N = 3", "setting": "human IL-33 [1]", "value": 16.5, "unit": "pM"}, {"measurement": "IC50, inhibition of IL-33 (15 pM) induced superoxide generation from eosinophils, pre-complexed, N = 4", "setting": "human IL-33 [1]", "value": 25.6, "unit": "pM"}, {"measurement": "IC50, inhibition of IL-33 (15 pM) induced superoxide generation from eosinophils, pre-complexed, N = 5", "setting": "human IL-33 [1]", "value": 14.8, "unit": "pM"}, {"measurement": "IC50, inhibition of IL-33 (15 pM) induced superoxide generation from eosinophils, pre-complexed, N = 6", "setting": "human IL-33 [1]", "value": 10.5, "unit": "pM"}, {"measurement": "IC50, inhibition of IL-33 (15 pM) induced superoxide generation from eosinophils, pre-complexed, N = 7", "setting": "human IL-33 [1]", "value": 24.8, "unit": "pM"}, {"measurement": "pIC50, inhibition of IL-33 (15 pM) induced superoxide generation from eosinophils, pre-complexed, Mean", "setting": "human IL-33 [1]", "value": 10.7}, {"measurement": "pIC50, inhibition of IL-33 (15 pM) induced superoxide generation from eosinophils, pre-complexed, N = 1", "setting": "human IL-33 [1]", "value": 10.7}, {"measurement": "pIC50, inhibition of IL-33 (15 pM) induced superoxide generation from eosinophils, pre-complexed, N = 2", "setting": "human IL-33 [1]", "value": 10.6}, {"measurement": "pIC50, inhibition of IL-33 (15 pM) induced superoxide generation from eosinophils, pre-complexed, N = 3", "setting": "human IL-33 [1]", "value": 10.8}, {"measurement": "pIC50, inhibition of IL-33 (15 pM) induced superoxide generation from eosinophils, pre-complexed, N = 4", "setting": "human IL-33 [1]", "value": 10.6}, {"measurement": "pIC50, inhibition of IL-33 (15 pM) induced superoxide generation from eosinophils, pre-complexed, N = 5", "setting": "human IL-33 [1]", "value": 10.8}, {"measurement": "pIC50, inhibition of IL-33 (15 pM) induced superoxide generation from eosinophils, pre-complexed, N = 6", "setting": "human IL-33 [1]", "value": 11}, {"measurement": "pIC50, inhibition of IL-33 (15 pM) induced superoxide generation from eosinophils, pre-complexed, N = 7", "setting": "human IL-33 [1]", "value": 10.6}, {"measurement": "Kd", "setting": "[2]", "value": 2.56, "unit": "µM"}, {"measurement": "Kd", "setting": "[3]", "value": 1.23, "unit": "µM"}, {"measurement": "IC50, inhibition of IL-33 (125 pM) induced IFN-γ secretion from CD4+ T cells, pre-complexed, Mean", "setting": "human IL-33 [4]", "value": 675, "unit": "pM"}, {"measurement": "IC50, inhibition of IL-33 (125 pM) induced IFN-γ secretion from CD4+ T cells, pre-complexed, N = 1", "setting": "human IL-33 [4]", "value": 1060, "unit": "pM"}, {"measurement": "IC50, inhibition of IL-33 (125 pM) induced IFN-γ secretion from CD4+ T cells, pre-complexed, N = 2", "setting": "human IL-33 [4]", "value": 936, "unit": "pM"}, {"measurement": "IC50, inhibition of IL-33 (125 pM) induced IFN-γ secretion from CD4+ T cells, pre-complexed, N = 3", "setting": "human IL-33 [4]", "value": 282, "unit": "pM"}, {"measurement": "IC50, inhibition of IL-33 (125 pM) induced IFN-γ secretion from CD4+ T cells, pre-complexed, N = 4", "setting": "human IL-33 [4]", "value": 591, "unit": "pM"}, {"measurement": "IC50, inhibition of IL-33 (125 pM) induced IFN-γ secretion from CD4+ T cells, pre-complexed, N = 5", "setting": "human IL-33 [4]", "value": 790, "unit": "pM"}, {"measurement": "IC50, inhibition of IL-33 (125 pM) induced IFN-γ secretion from CD4+ T cells, pre-complexed, N = 6", "setting": "human IL-33 [4]", "value": 497, "unit": "pM"}, {"measurement": "IC50, inhibition of IL-33 (125 pM) induced IFN-γ secretion from CD4+ T cells, pre-complexed, N = 7", "setting": "human IL-33 [4]", "value": 574, "unit": "pM"}, {"measurement": "pIC50, inhibition of IL-33 (125 pM) induced IFN-γ secretion from CD4+ T cells, pre-complexed, Mean", "setting": "human IL-33 [4]", "value": 9.2}, {"measurement": "pIC50, inhibition of IL-33 (125 pM) induced IFN-γ secretion from CD4+ T cells, pre-complexed, N = 1", "setting": "human IL-33 [4]", "value": 8.97}, {"measurement": "pIC50, inhibition of IL-33 (125 pM) induced IFN-γ secretion from CD4+ T cells, pre-complexed, N = 2", "setting": "human IL-33 [4]", "value": 9.02}, {"measurement": "pIC50, inhibition of IL-33 (125 pM) induced IFN-γ secretion from CD4+ T cells, pre-complexed, N = 3", "setting": "human IL-33 [4]", "value": 9.54}, {"measurement": "pIC50, inhibition of IL-33 (125 pM) induced IFN-γ secretion from CD4+ T cells, pre-complexed, N = 4", "setting": "human IL-33 [4]", "value": 9.22}, {"measurement": "pIC50, inhibition of IL-33 (125 pM) induced IFN-γ secretion from CD4+ T cells, pre-complexed, N = 5", "setting": "human IL-33 [4]", "value": 9.1}, {"measurement": "pIC50, inhibition of IL-33 (125 pM) induced IFN-γ secretion from CD4+ T cells, pre-complexed, N = 6", "setting": "human IL-33 [4]", "value": 9.3}, {"measurement": "pIC50, inhibition of IL-33 (125 pM) induced IFN-γ secretion from CD4+ T cells, pre-complexed, N = 7", "setting": "human IL-33 [4]", "value": 9.24}, {"measurement": "IC50, inhibition of 25 pM IL-33 isoform in HEK-Blue reporter assay", "setting": "IL-33 109-270", "value": 254, "unit": "pM"}, {"measurement": "IC50, inhibition of 25 pM IL-33 isoform in HEK-Blue reporter assay", "setting": "IL-33 95-270", "value": 162, "unit": "pM"}, {"measurement": "IC50, inhibition of 25 pM IL-33 isoform in HEK-Blue reporter assay", "setting": "[5]", "value": 18.2, "unit": "pM"}, {"measurement": "IC50, inhibition of 25 pM IL-33 isoform in HEK-Blue reporter assay", "setting": "spIL-33", "value": 90.3, "unit": "pM"}, {"measurement": "IC50, inhibition of 25 pM IL-33 isoform in HEK-Blue reporter assay", "setting": "IL-33 99-270", "value": 436, "unit": "pM"}]}
